This note sets out measurements from US12577536B2, “Method for isolating ureteric bud tip cells” (KYOTO UNIVERSITY, priority 2019, dated 2026).

The test system of this experiment is tip cell colonies. In words: Reconstitution of iUB organoids from tip cell colonies. The class given is cell-based, human. The note with it: organoid medium with Wnt3a conditioned medium and R-spondin 1 in place of CHIR99021. How it is done: Hydrogel was dissolved with Cell Recovery Solution (BD Biosciences) for 1 h at 4° C. to detach day 7 tip cell colonies. After washing with additional Cell Recovery Solution, the tip cell colonies were centrifuged at 500 g for 5 min at room temperature. Essential 6 medium containing 0.1 μM LDN193189, 100 ng/ml GDNF, 0.1 μM TTNPB, 200 ng/ml FGF8, 1 μM CHIR99021 or 10% Afamin/Wnt3a conditioned medium (MBL), 200 ng/ml R-spondin 1 (R&D systems), 50 ng/ml EGF, 200 ng/ml FGF1 and 10% Matrigel was applied to the tube including tip cell colonies. After pipetting gently with a wide-mouth micropipette (BMBio) not to break colonies, the suspension was distributed to low-attachment 35 mm dish (Sumitomo Bakelite) at 2 mL/dish. The medium was refreshed every 2 days. On day 4, each colony was placed onto one well of low-attachment 96-well plates in the same medium. After an additional 6 days, the tip region was separated from the reconstituted iUB organoid and treated with the same medium for 35 days.

B1: R-spondin 1: Wnt signaling activator (R&D systems) (protein, UniProt Q2MKA7 21-263, looked up)
R-spondin-1: SRGIKGKRQRRISAEGSQACAKGCELCSEVNGCLKCSPKLFILLERNDIRQVGVCLPSCPPGYFDARNPDMNKCIKCKIEHCEACFSHNFCTKCKEGLYLHKGRCYPACPEGSSAANGTMECSSPAQCEMSEWSPWGPCSKKQQLCGFRRGSEERTRRVLHAPVGDHAACSDTKETRRCTVRRVPCPEGQKRRKGGQGRRENANRNLARKESKEAGAGSRRRKGQQQQQQQGTVGPLTSAGPA
As to B1, the “reconstitution of iUB organoids from tip cell colonies” value was “iUB organoids could be reconstituted from tip cell colonies derived from any iPS cell lines”.
